To fix the notation:
B1: TPR t1 (parent)
chain: GACCAAUCUGCCCUCAGAGCUCGAGAACAUCUUCGGAUGCAGAGGAGGCAGGCUUCGGUGGCGCGAUAGCGCCAACGUCCUCAACCUCCAAUGCAUCCCACCACAUGAUGAUGCCUGAAGAGCCUUGGUUUUUUG

The data set covers variants of B1. Put plainly: polymerase ribozyme fitness, log enrichment relative to wild type (log ratio); higher = more active; in vitro selection for triplet polymerase activity. In outline:
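Input and output libraries were sequenced on Illumina after a single in vitro selection round, run in triplicate on PCR-built, transcribed mutant libraries of each subunit of a heterodimeric triplet polymerase ribozyme. Selection annealed libraries to a biotinylated primer, the partner subunit and triplets, incubated them frozen at −7 °C, then gel-excised extended constructs for streptavidin-bead capture and RT-PCR. Genotypes with ≥10 input reads and ≥1 read per output were kept. Fitness is the logarithm, taken in base 2, of genotype enrichment divided by wild-type enrichment, using inverse-variance-weighted replicate averages.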
GACCAAUCUGCCCUCAGAGCUAGAGAACAUCUUCGGAUGCAGAGGAGGCAGGCUUCGGUCGCGCGAUAGCGCUAACGUCCUCAACCUCCAAUGCAUCCCACCACAUGAUGAUGCCUGAAGAGCCUUGGUUUUUUG [C22A G60C C73U]: the “polymerase ribozyme fitness (log ratio)” value was -5.64.
For GACCAAUCUGCCCUCAGAGCUAGAGAACAUCUUCGGAUGCAGAGGAGGCAGGCUUCGGAGGCGCGAUAGCGCCAACGUCCUCAACCUCCAAUGCAUCCCACCACAUGAUGAUGCCUGAAGAGCCUUGGUUUUUUG [C22A U59A] the value was -5.52; for GACCAAUCUGCCCUCAGAGCUAGAGAACAUCUUCGUAUGCAGAGGAGGCAGGCUCCGGUGGCGCGAUAGCGCCAACGUCCUCAACCUCCAAUGCAUCCCACCACAUGAUGAUGCCUGAAAAGCCUUGGUUUUUUG [C22A G36U U55C G120A], -4.54.
As to GACCAAUCUGCCCUCAGAGCUAGAGAACAUCUUCGGAUACAGAGGAGGCAGGCUUCGGUGGCGCGAUAGCGCCAACGUCCUCAACCUCCAAUGCAUCCCACCACAUGAUGAUGCCUGAAGAGCCUUGGUUUUUUG [C22A G39A], the “polymerase ribozyme fitness (log ratio)” value was -5.08.
The same measure for GACCAAUCUGCCCUCAGAGCUAGAGAACAUCUUCGGAUGCAGAGGAGGCAGGCUUCGGUGGCGCGAUAGCGACAACGUCCUCAACCUCCAAUGCAUCCCACCACAAGAUGAUGCCUGGAGAGCCUUGGUUUUUUG [C22A C72A U106A A118G]: -3.71; for GACCAAUCUGCCCUCAGAGCUAGAGAACAUCUUCGGAUGCAGAGGAGUUAGGCUUCGGUGGGGCGAUAACGCCAACGUCCUCAACCUCCAAUGCAUCCCACCACAUGGUGCUGCCUGAAGAGCCUUGGUUUUUUG [C22A G48U C49U C62G G69A A108G A111C]: -6.98.
For GACCAAUCUGCCCUCAGAGCUAGAGAACAUCUUCGGAUGCAGAGGAGGCAGGCUUCGGUGGCGCGAUAGCGCCAACGUCCUCAACCUUCAAUGCAUCCCACCACAUGAUGAUGCCUGAAGAGCCUUGGUUUUUUG [C22A C88U] the value was -4.66; for GACCAAUCUGCCCUCAGAGCUAGAGAACAUCUUCGGAUGCAGAGGAGGCAGGCUUCGGUGGCGCGAUAGCGGCAACGUCCUCGACCUCCAAUGCAUCCCACCACAUGAUGAUGCAUGAAGAGCCUUGGUUUUUUG [C22A C72G A83G C115A], -5.56.
For GACCAAUCUGCCCUCAGAGCUAGAGAACAUCUUCGGAUGCAGAGGAGGCAGUCUUCGGUGGCGCGUUAGCGCCAACGUCCUCAACCUCCAAUGCAUCCCACCACAUGAUGAGGCCUGAAGAGCCUUGGUUUUUUG [C22A G52U A66U U112G], the “polymerase ribozyme fitness (log ratio)” value is -5.88.
For GACCAAUCUGCCCUCAGAGCUAGAGAACAUCUUCGGAUGCAGAGGAGGCAGACUUCGGUAGCGCGAUAGCGCCAACGUCCUCAACCUCCAAUGCAUCCCACCACAUGAUGAUGCCUUAAGAGUCUUGGUUCUUUG [C22A G52A G60A G117U C123U U131C] the value was -6.69.
Regarding GACCAAUCUGCCCUCAGAGCUAGAGAACAUCUUCGGAUGCAGAGGAGGCAGGCUUCGGUGGCGCGAUAGCGCCAACGUCCUCAACCUCCAAUGCAUCCCAUCACACGAUGAUGCCUGAAGAGCCUUGGUUUUUUG [C22A C101U U106C], the “polymerase ribozyme fitness (log ratio)” value was -5.01.
For GACCAAUCUGCCCUCAGAGCUAGAGAACAUCUUCGGAUGCAGACGUGGCAGGCUUCGGUGGCGCGAUAGCGCCAACGUCCUCAACCUCCAAUGCAUCCCAACACAUGAUGAUGCCUGAAGCGCCUUGGUUUUUUG [C22A G44C A46U C101A A121C] the value was -4.64; for GACCAAUCUGCCCUCAGAGCUAGAGAACAUCUUCGGAUGCAGAGGAGGCAAGCUUCGGUGGCGCGAUAGCCCCAACGUCCUCAACCUCCAAUGCAUCCCACCACAUGAUGCUGCCUGAAGAGCCUUGGUUUUUUG [C22A G51A G71C A111C], -6.96.
As to GACCAAUCUGCCCUCAGAGCUAGAGAACAUCUUCGGAUGCAGAGGAGGCAGGCUUCUGUGGCGCGAUAGCGCCAACGUCCUCAACCUCCAAUGCAUCCCACCACAAGAUGAUGCCUGGAGAGCCUUGGUUUUCUG [C22A G57U U106A A118G U133C], the “polymerase ribozyme fitness (log ratio)” value was -3.51.
For GACCAAUCUGCCCUCAGAGCUAGAGAACAUCUUCGAAUGCAGAGGAGGCAGGCUCCGGUGGCGCGAUAGCGCCAACGUCCUCAACCUCCAAUGCAACCCACCACAUGAUGUUGCCUGAAGAGCCUUGGUUUUUUG [C22A G36A U55C U96A A111U] the value was -6.03; for GACCAAUCUGCCCUCAGAGCUAGAGAACAUCUUCGGAUGCAGAUGAGGCAGGCUUCGGUGGCGCGAUAGCGCCAACGUCCUCAACCUCCAAUACAUCCCACCACAUGAUGAUGCCUGAAGAGCUUUGGUUUUUUG [C22A G44U G93A C124U], -4.53; for GACCAAUCUGCCCUCAGAGCUAGAGAACAUCUUCGGAUGCAGAGGAGGCAGGCUUCGGUGGCGCGAUAGCGCCAACGUCCUCAACCUCCAAUUCAUCCCACCACAUGAUGAUGCCUGAAGAGCCUUGGUUUUUUG [C22A G93U], -6.27.
For GACCAAUCUGCCCUCAGAGCUAGAGAACAUCUUCGGAUGCAGAGGAGGCAGGCUUCGGUGGCGCGAUAGCGCAAACGUCCUCAACCUCCAAUGCAUCCCACCACAUGAUGAUGCCUGAAGAGCCUUGGUUUUUUG [C22A C73A] the value was -4.25; for GACCAAUCUGCCCUCAGAGCUAGAGAACAUCUUCGGAUGCAGAGGAGGCAGGCUCCGGUGGCGCGAUAGCGCCAACGUCCUCAACCUCCAAUGCAUCCCACCACAUGAUGAUGCCUGAAGAGCCUUGGUUUUUUG [C22A U55C], -4.37.
GACCAAUCUGCCCUCAGAGCUAGAGAACAUCUUCGGAUGCAGAGGAGGCAGGCUGCGGUGGCGCGAUAGCGCCAACGUCCUCAACCUCCAAUGCAUCCCACCACAUGAUGAUGCCUGAAGAGCCUUGGUUUUUUG [C22A U55G]: the “polymerase ribozyme fitness (log ratio)” value was -4.85.
The same measure for GACCAAUCUGCCCUCAGAGCUAGAGAACAUCUUCGGAUGCAGAGGAGGCAGGCUUCGGUGACGCGAUAGCGCCAACGUCCUCAACCUCCAAUGCAUCCCACCACAUGAUGAUGCCUGAAGAGCCUUGGUUUUUUG [C22A G61A]: -4.54.

Values taken from the RNAGym collection of RNA variant scans (doi:10.1073/pnas.2313332121).
